Laboratory results published in patent US20240000957A1 (published 2024).

T1: Human EphA6 Fc fusion (Human, UniProt Q9UF33 23-550, limits assumed)
T1 construct: Bought Fc fusion; also called R&D Systems 5606-A6; not shown: Fc of the bought fusion
T1 sequence (looked up): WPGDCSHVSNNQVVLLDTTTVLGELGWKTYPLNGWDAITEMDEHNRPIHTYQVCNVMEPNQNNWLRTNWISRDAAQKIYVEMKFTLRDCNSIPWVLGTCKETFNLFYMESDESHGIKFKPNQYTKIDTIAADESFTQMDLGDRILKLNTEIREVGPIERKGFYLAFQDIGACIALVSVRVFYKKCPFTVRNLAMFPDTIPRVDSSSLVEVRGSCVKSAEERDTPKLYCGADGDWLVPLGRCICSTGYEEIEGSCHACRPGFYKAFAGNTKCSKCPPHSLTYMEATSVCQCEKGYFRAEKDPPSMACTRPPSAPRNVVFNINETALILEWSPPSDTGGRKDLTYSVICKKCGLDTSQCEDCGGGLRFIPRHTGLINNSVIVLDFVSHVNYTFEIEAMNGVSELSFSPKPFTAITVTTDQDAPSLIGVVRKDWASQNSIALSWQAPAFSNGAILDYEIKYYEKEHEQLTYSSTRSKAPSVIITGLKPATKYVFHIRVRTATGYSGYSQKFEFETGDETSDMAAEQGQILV

T2: Human EphA7 Fc fusion (Human, UniProt Q15375 28-555, limits assumed)
T2 construct: Bought Fc fusion; also called R&D Systems 6756-A7; not shown: Fc of the bought fusion
T2 sequence (looked up): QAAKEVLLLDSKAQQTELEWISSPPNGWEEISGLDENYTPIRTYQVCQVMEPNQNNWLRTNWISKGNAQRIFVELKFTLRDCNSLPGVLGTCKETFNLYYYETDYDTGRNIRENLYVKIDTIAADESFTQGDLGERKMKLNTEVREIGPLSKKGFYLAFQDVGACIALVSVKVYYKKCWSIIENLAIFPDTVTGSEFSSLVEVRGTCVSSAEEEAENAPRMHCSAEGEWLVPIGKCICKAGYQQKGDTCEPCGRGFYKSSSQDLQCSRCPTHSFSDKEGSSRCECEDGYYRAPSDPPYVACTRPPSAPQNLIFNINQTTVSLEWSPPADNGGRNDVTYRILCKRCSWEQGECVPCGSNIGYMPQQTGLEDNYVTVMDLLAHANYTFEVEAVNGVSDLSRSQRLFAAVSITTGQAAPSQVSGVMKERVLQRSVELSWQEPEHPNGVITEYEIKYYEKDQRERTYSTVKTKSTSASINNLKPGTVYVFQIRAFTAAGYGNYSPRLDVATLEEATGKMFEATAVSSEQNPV

T3: Human EphB4 Fc fusion (Human, UniProt P54760 16-539)
T3 construct: Bought Fc fusion; also called Sino Biologics 10235-H02H; not shown: Fc of the bought fusion
T3 sequence (looked up): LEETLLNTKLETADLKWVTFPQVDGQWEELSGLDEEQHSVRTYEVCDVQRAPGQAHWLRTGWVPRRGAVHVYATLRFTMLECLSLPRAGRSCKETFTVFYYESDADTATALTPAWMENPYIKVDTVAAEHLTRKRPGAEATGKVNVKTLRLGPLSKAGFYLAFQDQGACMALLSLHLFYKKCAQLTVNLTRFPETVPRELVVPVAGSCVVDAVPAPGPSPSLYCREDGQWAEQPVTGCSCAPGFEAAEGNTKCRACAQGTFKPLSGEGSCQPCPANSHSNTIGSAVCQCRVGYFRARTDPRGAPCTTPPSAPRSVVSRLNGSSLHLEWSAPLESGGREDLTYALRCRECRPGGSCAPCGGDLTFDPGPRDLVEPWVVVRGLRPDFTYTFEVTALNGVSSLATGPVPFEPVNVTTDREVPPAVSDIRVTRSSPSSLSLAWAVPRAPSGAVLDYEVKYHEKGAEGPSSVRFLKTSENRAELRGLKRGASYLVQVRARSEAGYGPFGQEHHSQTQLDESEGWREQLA

T4: Human EphA1 Fc fusion (Human, UniProt P21709 26-547)
T4 construct: Bought Fc fusion; also called Sino Biologics 15789-H02H; not shown: Fc of the bought fusion
T4 sequence (looked up): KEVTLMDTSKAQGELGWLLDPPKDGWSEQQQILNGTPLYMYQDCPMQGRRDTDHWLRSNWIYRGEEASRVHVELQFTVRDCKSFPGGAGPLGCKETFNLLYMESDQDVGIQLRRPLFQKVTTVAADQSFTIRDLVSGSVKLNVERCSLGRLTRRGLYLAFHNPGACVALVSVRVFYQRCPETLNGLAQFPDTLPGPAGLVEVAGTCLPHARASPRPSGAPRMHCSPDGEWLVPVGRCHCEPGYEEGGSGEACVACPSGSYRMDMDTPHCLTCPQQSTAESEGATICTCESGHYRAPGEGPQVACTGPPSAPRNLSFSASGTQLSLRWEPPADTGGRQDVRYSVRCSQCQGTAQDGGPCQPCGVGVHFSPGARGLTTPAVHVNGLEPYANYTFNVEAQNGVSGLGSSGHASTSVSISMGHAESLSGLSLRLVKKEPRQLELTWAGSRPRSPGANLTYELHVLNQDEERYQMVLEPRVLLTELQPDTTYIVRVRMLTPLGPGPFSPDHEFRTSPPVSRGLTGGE


Key:
Human EphA6 Fc fusion = biological target: T1, Human EphA6 Fc fusion; assay: SPR, Fc-tagged protein captured by anti-human IgG
Human EphA7 Fc fusion = biological target: T2, Human EphA7 Fc fusion; assay: SPR, Fc-tagged protein captured by anti-human IgG
Human EphB4 Fc fusion = biological target: T3, Human EphB4 Fc fusion; assay: SPR, Fc-tagged protein captured by anti-human IgG
Human EphA4 Fc fusion = biological target: T5, Human EphA4 Fc fusion (Human, UniProt P54764 20-547); assay: SPR, Fc-tagged protein captured by anti-human IgG
T5 construct: Bought Fc fusion; also called Sino Biologics 11314-H03H; not shown: Fc of the bought fusion
T5 sequence (P54764 20-547 limits assumed): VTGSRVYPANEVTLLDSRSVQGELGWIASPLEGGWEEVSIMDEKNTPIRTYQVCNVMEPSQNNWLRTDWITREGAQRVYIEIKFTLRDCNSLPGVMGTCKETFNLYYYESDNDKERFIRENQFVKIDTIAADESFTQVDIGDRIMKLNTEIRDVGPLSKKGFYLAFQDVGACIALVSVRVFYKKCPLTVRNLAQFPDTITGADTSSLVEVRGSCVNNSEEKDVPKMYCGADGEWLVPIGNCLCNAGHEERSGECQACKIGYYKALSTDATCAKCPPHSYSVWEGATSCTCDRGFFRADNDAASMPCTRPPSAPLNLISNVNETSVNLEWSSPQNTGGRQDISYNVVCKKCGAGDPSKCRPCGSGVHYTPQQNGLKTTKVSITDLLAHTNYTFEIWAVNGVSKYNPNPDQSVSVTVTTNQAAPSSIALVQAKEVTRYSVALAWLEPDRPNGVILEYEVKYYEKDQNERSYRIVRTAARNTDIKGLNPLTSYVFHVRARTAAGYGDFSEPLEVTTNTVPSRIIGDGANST

Human EphA1 Fc fusion = biological target: T4, Human EphA1 Fc fusion; assay: SPR, Fc-tagged protein captured by anti-human IgG
Rat EphA2 = Rat EphA2 (Rat, UniProt D3ZBN3 23-538, biotinylated, 1.4 mol biotin/monomer); assay: SPR, biotinylated EphA2 on streptavidin chip
Human EphA2 = biological target: T6, Human EphA2 (Human, UniProt P29317 24-537, limits assumed, biotinylated, 0.95 mol biotin/monomer); assay: SPR, biotinylated EphA2 on streptavidin chip
T6 construct: also called Eph receptor tyrosine kinase A2
T6 sequence (P29317 24-537 limits assumed): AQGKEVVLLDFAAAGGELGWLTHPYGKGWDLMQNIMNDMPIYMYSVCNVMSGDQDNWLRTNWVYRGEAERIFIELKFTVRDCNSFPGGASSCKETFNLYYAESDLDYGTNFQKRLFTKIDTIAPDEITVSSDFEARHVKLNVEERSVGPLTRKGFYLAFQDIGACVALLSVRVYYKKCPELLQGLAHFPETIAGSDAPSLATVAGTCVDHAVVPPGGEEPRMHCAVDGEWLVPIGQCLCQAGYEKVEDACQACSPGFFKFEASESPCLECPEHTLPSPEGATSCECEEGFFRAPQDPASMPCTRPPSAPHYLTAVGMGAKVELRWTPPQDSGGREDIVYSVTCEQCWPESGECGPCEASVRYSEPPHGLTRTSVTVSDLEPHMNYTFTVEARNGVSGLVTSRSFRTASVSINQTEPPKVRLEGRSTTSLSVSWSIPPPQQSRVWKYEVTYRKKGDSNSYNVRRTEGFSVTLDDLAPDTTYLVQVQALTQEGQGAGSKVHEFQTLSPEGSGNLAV

binding result (Human EphA6 Fc fusion) | binding result (Human EphA7 Fc fusion) | binding result (Human EphB4 Fc fusion) | binding result (Human EphA4 Fc fusion) | binding result (Human EphA1 Fc fusion) | Kd (Rat EphA2) [nM] | t1/2 (Rat EphA2) [min] | Kd (Human EphA2) [nM] | t1/2 (Human EphA2) [min] | Binder
no binding (tested: 20 µM) | no binding (tested: 20 µM) | no binding (tested: 20 µM) | no binding (tested: 5 µM) | no binding (tested: 5 µM) | 28.8 | 3.2 | 2.42 | 4.8 | AXDCPLVNPLCLHPGWTC (not fully specified; N-terminal (β-Ala)-Sar10 spacer precedes SEQ ID NO: 11; HArg (homoarginine) at residue 2 of SEQ ID NO: 11; three Cys cyclised on the TATA scaffold; DM1-SS(SO3H)- (DM1-SO3H-SPDB) on the N-terminal amine) [BCY6082]
no binding (tested: 20 µM) | no binding (tested: 20 µM) | no binding (tested: 20 µM) | no binding (tested: 5 µM) | no binding (tested: 5 µM) | 166 | 2.6 | 3.41 | 3.5 | AXDCPLVNPLCLHPGWTC (not fully specified; N-terminal (β-Ala)-Sar10 spacer precedes SEQ ID NO: 11; HArg (homoarginine) at residue 2 of SEQ ID NO: 11; three Cys cyclised on the TATA scaffold; ValCit-MMAE (MMAE-PABC-Cit-Val-glutarate) on the N-terminal amine) [BCY6033]
